According to patent US20240207432A1 (BIOSION, published 2024):

Assays:
human TROP2-his protein [1] = biological target: T1, human TROP2-his protein (human, UniProt P09758 27-274); assay: competitive ELISA: mouse A1E4F7D4 coated at 2 ug/mL, antibody premixed with biotin human TROP2-his; blocked: binding of TROP2-his to coated A1E4F7D4
T1 construct: Biotin-labelled in the ELISAs, unlabelled analyte in Biacore; also called biotin-labeled human TROP2-his protein; biotin human Trop2-his
T1 sequence: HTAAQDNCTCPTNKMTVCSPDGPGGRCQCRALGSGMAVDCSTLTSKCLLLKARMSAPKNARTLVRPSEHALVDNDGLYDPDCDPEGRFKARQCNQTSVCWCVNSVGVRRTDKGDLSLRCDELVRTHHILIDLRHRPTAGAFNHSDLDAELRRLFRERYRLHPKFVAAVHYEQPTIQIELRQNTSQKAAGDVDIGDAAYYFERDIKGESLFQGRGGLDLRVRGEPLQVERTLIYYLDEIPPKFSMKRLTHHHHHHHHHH
Description: (§1) The mouse anti-TROP2 antibodies were tested for epitope binding in a competitive ELISA assay. […] ELISA plates were washed once with wash buffer (PBS+0.05% v/v Tween-20, PBST) and then blocked with 200 μl blocking buffer (5% w/v non-fatty milk in PBST) for 2 hours at 37° C. While blocking, the anti-TROP2 antibodies or controls were diluted with biotin labeled human TROP2-his protein (SEQ ID NO: 67, 34 ng/mL in 2.5% wA non-fatty milk in PBST), starting at 80 nM with a 5-fold serial dilution, and incubated at room temperature for 40 minutes. After plate washing for 4 times, the antibody/TROP2-his protein mixtures were added to the antibody coated plates, 100 μl per well. After incubation at 37° C. for 40 minutes, plates were washed 4 times again using wash buffer. Then the plates were added and incubated with 100 μl Peroxidase Streptavidin (1:10000 dilution in PBST buffer. Jackson Immunoresearch, Cat #016-030-084) for 40 minutes at 37° C. Plates were washed again using wash buffer. Finally, TMB was added and the reaction was stopped using 1M H₂SO₄. The absorbance of each well was read on a microplate reader using dual wavelength mode with 450 nm for TMB and 630 nm as the reference wavelength, and the OD (450-630) values were plotted against antibody concentration. Data was analyzed using Graphpad Prism software and IC₅₀ values were reported.

human TROP2-his protein [2] = biological target: T1, human TROP2-his protein; assay: SPR Biacore T200, supernatant antibody captured on anti-human IgG CM5 chip, 40 nM human TROP2-his
Description: The goat anti-human IgG (GE healthcare, Cat #BR100839, Human Antibody Capture Kit) was covalently linked to a CM5 chip instead of goat anti-mouse IgG. […] The human TROP2-his protein at the concentration of 40 nM was used instead of serially diluted human TROP2-his protein.

[3] = biological target: T2, full length human TROP2 on 293F-TROP2 cells (human, UniProt P09758 27-323); assay: FACS on 293F-TROP2 cells, MFI
T2 construct: also called 293F-TROP2 cells (clone ID #3A8); cell surface TROP2
T2 sequence: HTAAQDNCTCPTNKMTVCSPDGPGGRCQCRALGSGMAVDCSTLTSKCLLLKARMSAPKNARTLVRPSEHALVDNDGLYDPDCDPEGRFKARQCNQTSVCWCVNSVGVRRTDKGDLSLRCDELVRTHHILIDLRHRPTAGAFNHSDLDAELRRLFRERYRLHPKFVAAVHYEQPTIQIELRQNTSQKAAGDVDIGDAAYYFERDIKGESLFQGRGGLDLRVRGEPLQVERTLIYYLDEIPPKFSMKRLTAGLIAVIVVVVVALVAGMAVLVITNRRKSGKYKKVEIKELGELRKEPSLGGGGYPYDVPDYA

[4] = biological target: T3, cynomolgus TROP2-his protein (cynomolgus monkey, UniProt P09758 27-272 (human entry), limits assumed); assay: SPR Biacore T200, benchmark captured on Protein G chip, TROP2-his analyte
T3 construct: no cleavage site is stated; also called Cynomolgus monkey TROP2-his protein; monkey TROP2
T3 chain: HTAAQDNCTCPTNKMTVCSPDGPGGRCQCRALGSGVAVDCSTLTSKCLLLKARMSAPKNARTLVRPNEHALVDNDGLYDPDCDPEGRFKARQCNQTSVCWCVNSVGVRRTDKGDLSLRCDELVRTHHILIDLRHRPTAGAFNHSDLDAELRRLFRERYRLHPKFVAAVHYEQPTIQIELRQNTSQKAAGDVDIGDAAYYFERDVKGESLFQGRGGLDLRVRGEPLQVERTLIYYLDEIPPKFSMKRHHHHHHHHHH
Description: (§2) Un-reacted moieties on the chip (biosensor) surface were blocked with ethanolamine. […] The antigen-antibody association kinetics was followed for 2 minutes and the dissociation kinetics was followed for 10 minutes. The association and dissociation curves were fit to a 1:1 Langmuir binding model using BIAcore evaluation software.

human TROP2-his protein [5] = biological target: T1, human TROP2-his protein; assay: as above
Description: as §2

human TROP2-his protein [6] = biological target: T1, human TROP2-his protein; assay: capture ELISA, captured antibody, biotin human TROP2-his in solution, OD(450-630)
Description: Plates were washed once with wash buffer (PBS+0.05% v/v Tween-20, PBST) and then blocked with 200 μl/well blocking buffer (5% w/v non-fatty milk in PBST) for 2 hours at 37° C. […] Plates containing captured anti-TROP2 antibodies were incubated with biotin-labeled human TROP2-his protein (prepared in house, SEQ ID NO: 67, 56.7 ng/mL in 2.5% w/v non-fatty milk in PBST, 100 μl/well) for 40 minutes at 37° C., washed 4 times, and incubated with streptavidin conjugated HRP (1:10000 dilution in PBST, Jackson Immuno Research, Cat #016-030-084, 100 μl/well) for 40 minutes at 37° C. After a final wash, plates were incubated with 100 μl/well ELISA substrate TMB (Innoreagents, Cat #TMB-S-002) at room temperature. The reaction was stopped in 3-10 minutes at room temperature with 50 μl/well 1M H₂SO₄, and the absorbance of each well was read on a microplate reader using dual wavelength mode with 450 nm for TMB and 630 nm as the reference wavelength. The OD (450-630) values were plotted against antibody concentration. Data was analyzed using Graphpad Prism software and EC₅₀ values were reported.

human TROP2-his protein [7] = biological target: T1, human TROP2-his protein; assay: competitive ELISA: BM1 coated at 1 ug/mL, antibody premixed with biotin human TROP2-his; blocked: binding of TROP2-his to coated BM1 (self-competition)
Description: as §1

B1: mouse antibody A1E11A12D1 (antibody, V domains shown)
VH: QVQLQQSGAELARPGASVKLSCMASGYTFTTYGISWVRQRTGQGLEWIGQIYPGSDYSYCDEDFKGKATLTADKSSSTAYMQLSSLTSEDSAVYFCARASYFDYWGQGTTLTVSS
VL: DILLTQSPAILSVSPGERVSFSCRASQTIGTAIHWYQQRANGSPRLLIKYASESISGIPSRFSGSGSGTDFALSINTVESEDFAYYYCQQSNNWPFTFGGGTKLEIR
notes: Mouse monoclonal IgG purified from hybridoma supernatant
IC50 (human TROP2-his protein [1]): 0.102 nM

B2: huA1E4F7D4-V16 (antibody, human IgG1, kappa, V domains shown)
VH: QVQLVQSGAEVKKPGASVKVSCKASGYSFTTHWIHWVRQAPGQGLEWIGTIFPSNAYAVYNQKFRDRATMTADTSISTAYIELSRLRSDDTAVYYCARASYFDYWGQGTTVTVSS
VL: EIVLTQSPATLSLSPGERATLSCRASQNIGTSIHWFQQKPGGAPRLLIKYASESISGIPSRFSGSGSGTDFTLTISSLEPEDFAVYYCQHSHSWPFTFGQGTKLEIKR
notes: Positions of the X residues are given in the claims; also called humanized antibody huA1E4F7D4-V16
Kd (human TROP2-his protein [2]): 0.137 nM | koff (human TROP2-his protein [2]): 0.000175 s⁻¹ | kon (human TROP2-his protein [2]): 1.28e+06 M⁻¹ s⁻¹ | EC50 [3]: 0.362 nM

B3: benchmark (in house prepared sacituzumab) (antibody, human IgG1, kappa, V domains shown)
VH: SVQLQQSGSELKKPGASVKVSCKASGYTFTNYGMNWVKQAPGQGLKWMGWINTYTGEPTYTDDFKGRFAFSLDTSVSTAYLQISSLKADDTAVYFCARGGFGSSYWYFDVWGQGSLVTVSS
VL: DIQLTQSPSSLSASVGDRVSITCKASQDVSIAVAWYQQKPGKAPKLLIYSASYRYTGVPDRFSGSGSGTDFTLTISSLQPEDFAVYYCQQHYITPLTFGAGTKVEIKR
notes: also called BM; BM1
Kd [4]: 0.557 nM | Kd (human TROP2-his protein [5]): 0.868 nM | EC50 (human TROP2-his protein [6]): 0.487 nM | IC50 (human TROP2-his protein [7]): 0.632 nM
